Assay results reported in PMC12112590, “NDF/GLYR1 Promotes RNA Polymerase II Processivity via Pol II Binding and Nucleosome Destabilization” (International Journal of Molecular Sciences, 2025).

Target: T1, Rpb1 subunit of yeast Pol II (S. cerevisiae, UniProt P04050 1-1733)
T1 construct: Rpb1, largest subunit of S. cerevisiae RNA polymerase II; identified as the labelled band after SDS-PAGE; source: subunit within purified S. cerevisiae Pol II
Assay: proximity labelling; in vitro biotinylation (BioID): 0-8 pmol hNDF-BirA* with 25 pmol yPol II in 20 μL; 20 mM HEPES pH 7.5, 10 mM MgCl2, 100 mM KCl, 1.5 mM ATP, 5% glycerol, 0.5 μM biotin; 30 °C, 1 h; SDS-PAGE and streptavidin-HRP blot
Settings: both partners purified

T1 sequence (P04050 whole entry): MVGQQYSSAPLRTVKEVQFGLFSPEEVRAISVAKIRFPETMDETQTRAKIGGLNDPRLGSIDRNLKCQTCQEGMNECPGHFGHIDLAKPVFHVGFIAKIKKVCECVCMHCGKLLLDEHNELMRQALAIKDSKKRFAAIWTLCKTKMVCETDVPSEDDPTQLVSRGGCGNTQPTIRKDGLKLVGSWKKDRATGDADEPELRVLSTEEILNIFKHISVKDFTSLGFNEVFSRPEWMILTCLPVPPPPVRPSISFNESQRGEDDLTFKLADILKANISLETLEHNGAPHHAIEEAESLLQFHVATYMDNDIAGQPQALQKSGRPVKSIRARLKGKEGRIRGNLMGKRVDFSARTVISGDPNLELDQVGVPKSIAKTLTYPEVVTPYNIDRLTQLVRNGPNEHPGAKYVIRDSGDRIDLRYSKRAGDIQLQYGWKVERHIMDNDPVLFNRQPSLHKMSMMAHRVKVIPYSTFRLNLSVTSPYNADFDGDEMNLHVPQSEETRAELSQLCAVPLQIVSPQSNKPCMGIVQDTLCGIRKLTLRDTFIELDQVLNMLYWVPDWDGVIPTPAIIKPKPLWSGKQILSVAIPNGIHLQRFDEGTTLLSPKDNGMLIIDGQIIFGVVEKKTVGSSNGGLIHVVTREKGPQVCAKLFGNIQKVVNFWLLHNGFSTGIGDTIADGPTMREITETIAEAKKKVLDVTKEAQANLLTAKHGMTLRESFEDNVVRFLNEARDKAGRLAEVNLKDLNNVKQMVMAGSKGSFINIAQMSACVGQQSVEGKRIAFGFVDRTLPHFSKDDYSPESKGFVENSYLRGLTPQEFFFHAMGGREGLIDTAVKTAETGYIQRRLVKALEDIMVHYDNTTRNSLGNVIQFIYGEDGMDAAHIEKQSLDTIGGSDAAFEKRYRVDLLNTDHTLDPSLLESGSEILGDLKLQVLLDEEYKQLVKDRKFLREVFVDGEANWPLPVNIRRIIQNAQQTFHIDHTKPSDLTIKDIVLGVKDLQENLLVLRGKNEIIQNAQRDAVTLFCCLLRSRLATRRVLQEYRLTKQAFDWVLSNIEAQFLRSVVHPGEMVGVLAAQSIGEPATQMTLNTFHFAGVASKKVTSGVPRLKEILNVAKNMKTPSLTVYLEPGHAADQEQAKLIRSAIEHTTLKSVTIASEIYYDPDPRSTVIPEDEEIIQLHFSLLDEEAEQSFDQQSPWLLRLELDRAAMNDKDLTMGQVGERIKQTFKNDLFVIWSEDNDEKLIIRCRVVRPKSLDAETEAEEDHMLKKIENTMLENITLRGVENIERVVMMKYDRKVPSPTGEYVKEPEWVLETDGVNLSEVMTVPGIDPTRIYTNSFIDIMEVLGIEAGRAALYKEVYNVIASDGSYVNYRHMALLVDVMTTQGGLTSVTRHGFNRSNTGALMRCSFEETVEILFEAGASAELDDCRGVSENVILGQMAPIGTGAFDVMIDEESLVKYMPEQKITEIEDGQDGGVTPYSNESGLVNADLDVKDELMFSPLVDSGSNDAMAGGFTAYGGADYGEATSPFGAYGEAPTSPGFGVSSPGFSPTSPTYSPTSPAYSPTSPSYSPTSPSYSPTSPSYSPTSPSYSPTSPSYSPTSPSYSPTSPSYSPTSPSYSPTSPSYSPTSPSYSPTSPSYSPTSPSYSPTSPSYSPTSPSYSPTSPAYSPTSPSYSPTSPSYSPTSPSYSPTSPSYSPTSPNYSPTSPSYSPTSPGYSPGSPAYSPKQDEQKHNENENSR

- binding result: binds
B1: BirA*-hNDF fusion protein (natural protein, human, UniProt Q49A26 1-553, looked up)
chain: MAAVSLRLGDLVWGKLGRYPPWPGKIVNPPKDLKKPRGKKCFFVKFFGTEDHAWIKVEQLKPYHAHKEEMIKINKGKRFQQAVDAVEEFLRRAKGKDQTSSHNSSDDKNRRNSSEERSRPNSGDEKRKLSLSEGKVKKNMGEGKKRVSSGSSERGSKSPLKRAQEQSPRKRGRPPKDEKDLTIPESSTVKGMMAGPMAAFKWQPTASEPVKDADPHFHHFLLSQTEKPAVCYQAITKKLKICEEETGSTSIQAADSTAVNGSITPTDKKIGFLGLGLMGSGIVSNLLKMGHTVTVWNRTAEKCDLFIQEGARLGRTPAEVVSTCDITFACVSDPKAAKDLVLGPSGVLQGIRPGKCYVDMSTVDADTVTELAQVIVSRGGRFLEAPVSGNQQLSNDGMLVILAAGDRGLYEDCSSCFQAMGKTSFFLGEVGNAAKMMLIVNMVQGSFMATIAEGLTLAQVTGQSQQTLLDILNQGQLASIFLDQKCQNILQGNFKPDFYLKYIQKDLRLAIALGDAVNHPTPMAAAANEVYKRAKALDQSDNDMSAVYRAYIH
notes: human NDF / GLYR1 fused to the promiscuous biotin ligase BirA*; The name is printed in both orders (BirA*-hNDF, hNDF-BirA*); the construct's name puts BirA* before hNDF; also called hNDF-BirA*; hNDF-BirA; source: pET21b-N-His6-BirA*-hNDF expression construct, purified as previously described [44]; not shown: BirA* (promiscuous biotin ligase), N-terminal, kept
